# B1: shAxl2: human Axl-targeting shRNA, SEQ ID NO: 1, expressed from retroviral vector (nucleic acid, listed as Homo sapiens)
# chain: GACATCCTCTTTCTCCTGCGAAGCCCATCTGGTCATGGGCTTCGCAGGAGAAAGAGGATGTC
# B2: shAxl279: ineffective human Axl-targeting shRNA, SEQ ID NO: 3, used as control (nucleic acid, listed as Homo sapiens)
# chain: GCTTCAGGCGATTTCCCCGGCGTTGGATCCCTGGTCGGATCCAACGCCGGGGAAATCGCCTGAAGC
# Tests used:
# MDA-MB-231-D3H2LN cells = assay: Mammary fat pad spontaneous metastasis model, bioluminescence imaging; assay type: in vivo, NOD-SCID mice
# Method: BLI was performed using a eXplore Optix (GE Healtcare) camera mounted in a specimen box. Imaging and quantification of signals was done using eXplore Optix software. For in vivo imaging, animals received via intraperitoneal injection (i.p) the substrate D-luciferin (Biosynth), 150 mg/kg in PBS (Phosphate Buffered Saline) and anesthetized with isoflurane. Mice were placed into warmed stage inside of camera box with continuous exposure to 1-2% isoflurane and imaged for different views depending on the tumor model. Region of interest were identified and were quantified as total photon/sec-1 using eXplore Optix software (GE Explore Optix). In vivo background bioluminescence was in the range of 2-3×10 photon counts. […]
# Subline of human MDA-MB-231 cells (called MDA-MB 231 DH3L2N—Xenogen) which express GFP-Luc biomarker and different RNAs interference that regulate Axl expression were injected into mammary pad of mice. […] Tumor growth and metastasis spread was monitored every second week by bioluminescent imaging for up to 9 weeks. […]
# In order to evaluate the requirement of Axl for breast cancer metastasis, we orthotopically injected MDA-MB-231-D3H2LN, a rapidly growing and highly metastatic in vivo MDA-231 isolate, into the mammary fat pad. Using whole body bioluminescent imaging we temporally monitored spontaneous metastasis development over a 9-week period. […]
# MDA-MB-231/GFP-Luc cells = assay: Tissue engineered tricellular tumor implants (MDA-MB-231, EC, SMC) in scaffolds; assay type: in vivo, NOD-SCID mice
# Excerpt: 1×10^6 MDA-MB 231 cells which express GFP-Luc biomarker and different RNAs interference that regulate Axl expression, were suspended in a 1:1 mixture of F-12 Kaighn's (Invitrogen) :Matrigel (BD Biosciences) and seeded in 6×6 mm Poly-lactic acid (PLLA) scaffolds.
# Females NOD/SCID/B2mnull were anesthetized by exposure to 1-2% isoflurane (Isoba vet.-Schering-Plough A/S) during the implantation procedure and on subsequent imaging days. Two scaffolds were implanted subcutaneously (s.c) in each mouse according to Nor et al. Lab Invest.; 81 (4) 453; 2001 Scaffolds with cells that express Axl were implanted on the left side of each mouse while on the right side scaffolds with cells in which Axl was knockdown. After the surgical procedure, anesthetized mice were placed in Imaging System and imaged for both left and right sides 10-15 min after intraperitoneal injection of 150 mg/kg D-luciferin (Biosynth). Tumor development was monitored in vivo once a week by imaging for 4 weeks.
# For tricellular implant MDA-MB-231 cells infected with shRNA vectors and GFP-Luc were mixed with Human dermal microvascular endothelial cells (HMVEC), and pulmonary artery smooth muscle cells (PASMC) in ratio of 1:2:2. Tumor growth was monitored weekly in vivo by imaging for 4 consecutive weeks.
# To ascertain whether Axl influences the ability of breast cancer cells to attract and co-opt blood vessels, we developed a tri-cellular implant approach comprising MB-MDA-231 cells seeded together with primary human microvascular endothelial (HuMVEC) and vascular smooth muscle cells (vSMC) to create tumor vasculature. Implants of human EC-vSMC cells readily form perfused intrascaffold human microvasculature in NOD-SCID mice within a two-week period (Hegen et al., in preparation). […] The engineered human tumor vasculature is evenly distributed and perfused with intralumenal red blood cells. In contrast, Axl knockdown, blocked tumor formation, without affecting development of a perfused human microvasculature.
# mouse Axl = assay: Flow cytometry of mouse Axl surface expression in 4T1-GFP-Luc cells; assay type: cell-based; conditions: 4T1 cells, retroviral shRNA expression
# Method: (§1) The MDA-MB-231 cells were trypsinated using standard procedures and washed in PBS-0.2% BSA before staining with anti-Axl (#MAB154, R&D Systems) at a final concentration of […] in PBS-0.2% BSA for 40 minutes at room temperature. Cells were washed twice in PBS-0.2% BSA) and incubated with secondary antibody (Goat anti-mouse APC (Allophyocyanin, crosslinked, Molecular Probes) at a final concentration of 0.2 mg/ml for 30 minutes at room temperature in the dark. Cells were washed twice with PBS-2% BSA and resuspended in […] PBS-0.2% BSA before analysis on a FacsCalibur Flow Cytometer (BD Biosciences). Data analyses were carried out using the FlowJo software (Tree Star, Inc., Ashland, Oreg., USA).
# In order to validate our results in a different metastatic model we transduced the highly metastatic mouse breast carcinoma 4T1 cell line with the CSI-construct and selected for GFPluciferase expression by FACS (4T1-GFP-Luc). […] A mismatched human Axl-targeting shRNA (shAxl279) had no effect on mouse Axl expression.
# Axl = assay: FACS analysis of Axl expression in epi-allelic MDA-MB-231 cell series; assay type: cell-based, human; conditions: MDA-MB-231/GFP-Luc cells
# Excerpt: All shRNAs were expressed from a modified human U6 promoter in the LTR of the retroviral vectors RRI-Red/L087 (Genbank: EU424173) used to transform MDA-MB-231 cells via retroviral infection. RRI-Red also expresses Puro2AmRed1 resulting in puromycin resistance and red fluorescence in successfully transformed cells. All Axl cDNA nucleotides are numbered as in Genbank: BC032229.
# as §1, with “Data analyses were carried out using the FlowJo software (Tree Star, Inc., Ashland, Oreg., USA).” left out
# The strong correlation of Axl expression in early breast carcinomas with poor survival indicates an important role for Axl in overall disease pathogenesis. As breast cancer-related mortality invariably results from complications of metastatic disease, we assessed whether Axl expression was required for malignant breast carcinoma cell invasiveness. […]
Molecule,"Overall survival (MDA-MB-231-D3H2LN cells; orthotopically injected MDA-MB-231-D3H2LN/GFP-Luc cells, P=0.013 log-rank test vs control)",Spontaneous metastasis (MDA-MB-231-D3H2LN cells; whole body bioluminescent imaging over 9 weeks),"Intrascaffold vessel diameter (MDA-MB-231/GFP-Luc cells; excised tumors, 28 days)","Microvascular density (MDA-MB-231/GFP-Luc cells; excised tumors, 28 days)","Tissue engineered tumor growth (MDA-MB-231/GFP-Luc cells; tricellular implants, in vivo imaging)",mouse Axl surface levels (mouse Axl),Axl knockdown efficacy (Axl-targeting shRNA) (Axl)
B1,significantly increased,no metastases were detected,unaffected,slightly enhanced,inhibited,,
B2,,,,,,had no effect,ineffective
